# Square brackets hold non-standard residues; d marks the D form.
# B1: AP524d (peptide)
# peptide: Ac-RCE[dM]N[dL]S[dW]M[dN][dE][dY][dY]GW[dT]M[dN]M[dK]MGR-NH2
# modifications: also: disulfide-linked homodimer via Cys2
# B2: AP525d (peptide)
# peptide: Ac-RGE[dM]N[dL]S[dW]M[dN][dE][dY][dY]GW[dT]M[dN]M[dK]CGR-NH2
# modifications: also: homodimer: Cys21 disulfide-bonded to Cys21 of other copy
# B3: AP522m (peptide)
# peptide: Ac-RGE[dC]N[dL]S[dW]MNEYYGW[dT]M[dN]M[dK]MGR-NH2
# SMILES: CSCC[C@H](NC(=O)[C@@H](CCCCN)NC(=O)[C@H](CCSC)NC(=O)[C@@H](CC(N)=O)NC(=O)[C@H](CCSC)NC(=O)[C@H](NC(=O)[C@H](Cc1c[nH]c2ccccc12)NC(=O)CNC(=O)[C@H](Cc1ccc(O)cc1)NC(=O)[C@H](Cc1ccc(O)cc1)NC(=O)[C@H](CCC(=O)O)NC(=O)[C@H](CC(N)=O)NC(=O)[C@H](CCSC)NC(=O)[C@@H](Cc1c[nH]c2ccccc12)NC(=O)[C@H](CO)NC(=O)[C@@H](CC(C)C)NC(=O)[C@H](CC(N)=O)NC(=O)[C@@H](CS)NC(=O)[C@H](CCC(=O)O)NC(=O)CNC(=O)[C@H](CCCNC(=N)N)NC(C)=O)[C@H](C)O)C(=O)NCC(=O)N[C@@H](CCCNC(=N)N)C(N)=O
# B4: AP523d (peptide)
# peptide: Ac-RGE[dC]N[dL]S[dW]M[dN][dE][dY][dY]GW[dT]M[dN]M[dK]MGR-NH2
# modifications: also: disulfide-linked homodimer (Cys4 to Cys4 of other copy), disulfide at 4, other end not in the chain
# B5: AP522d (peptide)
# peptide: Ac-RGE[dC]N[dL]S[dW]MNEYYGW[dT]M[dN]M[dK]MGR-NH2
# modifications: also: disulfide-linked homodimer (Cys4 to Cys4 of other copy), disulfide at 4, other end not in the chain
# B6: AP527d (peptide)
# peptide: Ac-[dR]G[dE]M[dN]L[dS]W[dM][dN][dE][dY][dY]G[dW]T[dM]N[dM]K[dC]G[dR]-NH2
# modifications: also: homodimer: D-Cys21 disulfide-bonded to D-Cys21 of other copy
# B7: AP526m (peptide)
# peptide: Ac-[dR]G[dE]M[dN]L[dS]W[dM][dN][dE][dY][dS]G[dW]T[dM]N[dC]K[dM]G[dR]-NH2
# SMILES: CSCC[C@H](NC(=O)[C@@H](CCC(=O)O)NC(=O)CNC(=O)[C@@H](CCCNC(=N)N)NC(C)=O)C(=O)N[C@H](CC(N)=O)C(=O)N[C@@H](CC(C)C)C(=O)N[C@H](CO)C(=O)N[C@@H](Cc1c[nH]c2ccccc12)C(=O)N[C@H](CCSC)C(=O)N[C@H](CC(N)=O)C(=O)N[C@H](CCC(=O)O)C(=O)N[C@H](Cc1ccc(O)cc1)C(=O)N[C@H](CO)C(=O)NCC(=O)N[C@H](Cc1c[nH]c2ccccc12)C(=O)N[C@H](C(=O)N[C@H](CCSC)C(=O)N[C@@H](CC(N)=O)C(=O)N[C@H](CS)C(=O)N[C@@H](CCCCN)C(=O)N[C@H](CCSC)C(=O)NCC(=O)N[C@H](CCCNC(=N)N)C(N)=O)[C@@H](C)O
# B8: AP523m (peptide)
# peptide: Ac-RGE[dC]N[dL]S[dW]M[dN][dE][dY][dY]GW[dT]M[dN]M[dK]MGR-NH2
# SMILES: CSCC[C@H](NC(=O)[C@@H](CCCCN)NC(=O)[C@H](CCSC)NC(=O)[C@@H](CC(N)=O)NC(=O)[C@H](CCSC)NC(=O)[C@H](NC(=O)[C@H](Cc1c[nH]c2ccccc12)NC(=O)CNC(=O)[C@@H](Cc1ccc(O)cc1)NC(=O)[C@@H](Cc1ccc(O)cc1)NC(=O)[C@@H](CCC(=O)O)NC(=O)[C@@H](CC(N)=O)NC(=O)[C@H](CCSC)NC(=O)[C@@H](Cc1c[nH]c2ccccc12)NC(=O)[C@H](CO)NC(=O)[C@@H](CC(C)C)NC(=O)[C@H](CC(N)=O)NC(=O)[C@@H](CS)NC(=O)[C@H](CCC(=O)O)NC(=O)CNC(=O)[C@H](CCCNC(=N)N)NC(C)=O)[C@H](C)O)C(=O)NCC(=O)N[C@@H](CCCNC(=N)N)C(N)=O
# B9: AP524m (peptide)
# peptide: Ac-RCE[dM]N[dL]S[dW]M[dN][dE][dY][dY]GW[dT]M[dN]M[dK]MGR-NH2
# SMILES: CSCC[C@H](NC(=O)[C@@H](CCCCN)NC(=O)[C@H](CCSC)NC(=O)[C@@H](CC(N)=O)NC(=O)[C@H](CCSC)NC(=O)[C@H](NC(=O)[C@H](Cc1c[nH]c2ccccc12)NC(=O)CNC(=O)[C@@H](Cc1ccc(O)cc1)NC(=O)[C@@H](Cc1ccc(O)cc1)NC(=O)[C@@H](CCC(=O)O)NC(=O)[C@@H](CC(N)=O)NC(=O)[C@H](CCSC)NC(=O)[C@@H](Cc1c[nH]c2ccccc12)NC(=O)[C@H](CO)NC(=O)[C@@H](CC(C)C)NC(=O)[C@H](CC(N)=O)NC(=O)[C@@H](CCSC)NC(=O)[C@H](CCC(=O)O)NC(=O)[C@H](CS)NC(=O)[C@H](CCCNC(=N)N)NC(C)=O)[C@H](C)O)C(=O)NCC(=O)N[C@@H](CCCNC(=N)N)C(N)=O
# B10: AP521d (peptide)
# peptide: Ac-RGE[dC]N[dL]S[dW]MNEYSGW[dT]M[dN]M[dK]MGR-NH2
# modifications: also: disulfide-linked homodimer (Cys4 to Cys4 of other copy), disulfide at 4, other end not in the chain
# B11: AP527m (peptide)
# peptide: Ac-[dR]G[dE]M[dN]L[dS]W[dM][dN][dE][dY][dY]G[dW]T[dM]N[dM]K[dC]G[dR]-NH2
# SMILES: CSCC[C@H](NC(=O)[C@@H](CCC(=O)O)NC(=O)CNC(=O)[C@@H](CCCNC(=N)N)NC(C)=O)C(=O)N[C@H](CC(N)=O)C(=O)N[C@@H](CC(C)C)C(=O)N[C@H](CO)C(=O)N[C@@H](Cc1c[nH]c2ccccc12)C(=O)N[C@H](CCSC)C(=O)N[C@H](CC(N)=O)C(=O)N[C@H](CCC(=O)O)C(=O)N[C@H](Cc1ccc(O)cc1)C(=O)N[C@H](Cc1ccc(O)cc1)C(=O)NCC(=O)N[C@H](Cc1c[nH]c2ccccc12)C(=O)N[C@H](C(=O)N[C@H](CCSC)C(=O)N[C@@H](CC(N)=O)C(=O)N[C@H](CCSC)C(=O)N[C@@H](CCCCN)C(=O)N[C@H](CS)C(=O)NCC(=O)N[C@H](CCCNC(=N)N)C(N)=O)[C@@H](C)O
# B12: AP525m (peptide)
# peptide: Ac-RGE[dM]N[dL]S[dW]M[dN][dE][dY][dY]GW[dT]M[dN]M[dK]CGR-NH2
# SMILES: CSCC[C@H](NC(=O)[C@@H](CC(N)=O)NC(=O)[C@H](CCSC)NC(=O)[C@H](NC(=O)[C@H](Cc1c[nH]c2ccccc12)NC(=O)CNC(=O)[C@@H](Cc1ccc(O)cc1)NC(=O)[C@@H](Cc1ccc(O)cc1)NC(=O)[C@@H](CCC(=O)O)NC(=O)[C@@H](CC(N)=O)NC(=O)[C@H](CCSC)NC(=O)[C@@H](Cc1c[nH]c2ccccc12)NC(=O)[C@H](CO)NC(=O)[C@@H](CC(C)C)NC(=O)[C@H](CC(N)=O)NC(=O)[C@@H](CCSC)NC(=O)[C@H](CCC(=O)O)NC(=O)CNC(=O)[C@H](CCCNC(=N)N)NC(C)=O)[C@H](C)O)C(=O)N[C@H](CCCCN)C(=O)N[C@@H](CS)C(=O)NCC(=O)N[C@@H](CCCNC(=N)N)C(N)=O
# B13: AP527d (BMOE) (peptide)
# peptide: Ac-[dR]G[dE]M[dN]L[dS]W[dM][dN][dE][dY][dY]G[dW]T[dM]N[dM]K[dC]G[dR]-NH2
# modifications: also: homodimer linked by BMOE, linker at 21 via BMOE, other end not in the chain
# B14: AP527d (MalPEG1) (peptide)
# peptide: Ac-[dR]G[dE]M[dN]L[dS]W[dM][dN][dE][dY][dY]G[dW]T[dM]N[dM]K[dC]G[dR]-NH2
# modifications: also: homodimer linked by MalPEG1, linker at 21 via MalPEG1, other end not in the chain
# Target: T1, Aβ42 (UniProt P05067 672-713)
# T1 sequence (P05067 672-713 limits assumed): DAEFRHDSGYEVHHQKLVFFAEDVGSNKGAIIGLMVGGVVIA
# Experiment: cell-based or functional assay
Binder,"% inhibition of fibril formation (ThT), AP:Aβ42 1:1","% inhibition of fibril formation (ThT), AP:Aβ42 1:10","% inhibition of fibril formation (ThT), AP:Aβ42 1:100"
B1,100%,86.1%,43.1%
B2,99.7%,98.3%,89.2%
B3,45.7%,12.6%,0%
B4,100%,87.3%,40.3%
B5,100%,88.1%,52.4%
B6,100%,96.2%,86.4%
B7,63.2%,12.4%,0%
B8,49%,9%,0%
B9,45.8%,7.2%,0%
B10,100%,100%,54.3%
B11,54.2%,14.3%,0%
B12,53.5%,12.1%,0%

# Target: T1, Aβ42
# Experiment: cell-based or functional assay
# Remark: another data set of the same source
row,Binder,"% Inhibition 1:10 (AP peptide:Abeta42), ThT assay"
1,B6,96%
2,B13,80%
3,B14,75%
4,B11,14%

# Reference: patent US20230048960A1 (University of Washington, published 2023)
